Legend:
HLA-A*01:01 = experiment: IEDB peptide-MHC binding, purified MHC/direct/fluorescence; filed as Kd, often an IC50 or EC50 that approximates it; ≥ and ≤ were set here for values at or beyond the usual limits of such assays
HLA-A*02:01 = experiment: as above
HLA-A*03:01 = experiment: as above
HLA-A*11:01 = experiment: as above
HLA-A*24:03 = experiment: as above
HLA-A*26:01 = experiment: as above
HLA-A*31:01 = experiment: as above
HLA-A*69:01 = experiment: as above
HLA-B*07:02 = experiment: as above
HLA-B*08:01 = experiment: as above
HLA-B*15:01 = experiment: as above
HLA-B*27:05 = experiment: as above
HLA-B*40:01 = experiment: as above
HLA-B*44:02 = experiment: as above
HLA-B*58:01 [1] = experiment: as above
HLA-A*02:50 = experiment: IEDB peptide-MHC binding, purified MHC/competitive/fluorescence; filed as Kd, often an IC50 or EC50 that approximates it; ≥ and ≤ were set here for values at or beyond the usual limits of such assays
HLA-B*35:01 = experiment: IEDB peptide-MHC binding, purified MHC/direct/fluorescence; filed as Kd, often an IC50 or EC50 that approximates it; ≥ and ≤ were set here for values at or beyond the usual limits of such assays
HLA-B*57:01 = experiment: IEDB peptide-MHC binding, purified MHC/competitive/radioactivity; filed as Kd, often an IC50 or EC50 that approximates it; ≥ and ≤ were set here for values at or beyond the usual limits of such assays
HLA-B*58:01 [2] = experiment: as above
HLA-B*51:01 = experiment: IEDB peptide-MHC binding, purified MHC/direct/fluorescence; filed as Kd, often an IC50 or EC50 that approximates it; ≥ and ≤ were set here for values at or beyond the usual limits of such assays; conditions: source organism: Tetraodon nigroviridis
[3] = source organism: Brucella melitensis
[4] = source organism: Rickettsia typhi
[5] = source organism: Salmonella enterica
[6] = source organism: Dengue virus 1 Brazil/97-11/1997
[7] = source organism: Yersinia pestis
[8] = source organism: Dengue virus 2 Peru/IQT2913/1996
[9] = source organism: Vibrio parahaemolyticus

With ALFEDYPGC the Kd (HLA-A*01:01; [3]) was ≥ 20 µM, the Kd (HLA-A*02:01; [3]) was 0.354 µM and the Kd (HLA-A*03:01; [3]) was ≥ 20 µM. The Kd (HLA-A*11:01; [3]) was ≥ 20 µM, the Kd (HLA-A*24:03; [3]) was ≥ 20 µM and the Kd (HLA-A*26:01; [3]) was ≥ 20 µM. For the same sequence, the Kd (HLA-A*31:01; [3]) was ≥ 20 µM, the Kd (HLA-A*69:01; [3]) was ≥ 20 µM and the Kd (HLA-B*07:02; [3]) was ≥ 20 µM. The Kd (HLA-B*08:01; [3]) was ≥ 20 µM, the Kd (HLA-B*15:01; [3]) was ≥ 20 µM and the Kd (HLA-B*27:05; [3]) was ≥ 20 µM. The Kd (HLA-B*40:01; [3]) was ≥ 20 µM, the Kd (HLA-B*44:02; [3]) was ≥ 20 µM and the Kd (HLA-B*58:01 [1]; [3]) was ≥ 20 µM. For the same sequence, the Kd (HLA-A*02:50; [3]) was 0.0062 µM.
For APILVVSGI, the Kd (HLA-A*01:01; [4]) was ≥ 20 µM, the Kd (HLA-A*02:01; [4]) was ≥ 20 µM and the Kd (HLA-A*03:01; [4]) was ≥ 20 µM. For the same sequence, the Kd (HLA-A*11:01; [4]) was ≥ 20 µM, the Kd (HLA-A*24:03; [4]) was 14.8 µM and the Kd (HLA-A*26:01; [4]) was ≥ 20 µM. For the same sequence, the Kd (HLA-A*31:01; [4]) was ≥ 20 µM, the Kd (HLA-A*69:01; [4]) was ≥ 20 µM and the Kd (HLA-B*07:02; [4]) was 0.157 µM. The Kd (HLA-B*08:01; [4]) was ≥ 20 µM, the Kd (HLA-B*15:01; [4]) was ≥ 20 µM and the Kd (HLA-B*27:05; [4]) was ≥ 20 µM. The Kd (HLA-B*35:01; [4]) was 0.289 µM, the Kd (HLA-B*40:01; [4]) was ≥ 20 µM and the Kd (HLA-B*44:02; [4]) was ≥ 20 µM. The Kd (HLA-B*58:01 [1]; [4]) was ≥ 20 µM.
For ATGDYVAFV, the Kd (HLA-A*02:01; [5]) was 0.067 µM, the Kd (HLA-A*69:01; [5]) was 0.0158 µM and the Kd (HLA-A*02:50; source organism: Salmonella enterica subsp. enterica serovar Typhi) was 0.0009 µM.
With ATLFVWYFW the Kd (HLA-B*57:01; [6]) was 0.115 µM and the Kd (HLA-B*58:01 [2]; [6]) was 0.2 µM.
GMFIIFIPI was tested, and the Kd (HLA-A*02:01; [7]) was 8.84 µM, the Kd (HLA-A*69:01; [7]) was 5.42 µM and the Kd (HLA-A*02:50; source organism: Yersinia pestis Nepal516) was 0.395 µM.
In the case of LAIPVTMTL, the Kd (HLA-B*58:01 [2]; source organism: Dengue virus 4 Philippines/H241/1956) is reported as 0.00134 µM.
Sequence LGSQEGAMHT has a Kd (HLA-B*58:01 [2]; source organism: Dengue virus 2 Jamaica/1409/1983) of 0.548 µM.
With LPAQGLIEF the Kd (HLA-B*51:01) was 11.3 µM.
Sequence LTSKELMMTT has a Kd (HLA-B*57:01; [8]) of 0.246 µM and a Kd (HLA-B*58:01 [2]; [8]) of 0.422 µM.
For MSSAMSMMH, the Kd (HLA-A*01:01; [9]) was 6.94 µM, the Kd (HLA-A*02:01; [9]) was ≥ 20 µM and the Kd (HLA-A*03:01; [9]) was 0.0661 µM. The Kd (HLA-A*11:01; [9]) was 0.154 µM, the Kd (HLA-A*24:03; [9]) was 5.11 µM and the Kd (HLA-A*26:01; [9]) was ≥ 20 µM. The Kd (HLA-A*69:01; [9]) was ≥ 20 µM, the Kd (HLA-B*07:02; [9]) was ≥ 20 µM and the Kd (HLA-B*08:01; [9]) was ≥ 20 µM. For the same sequence, the Kd (HLA-B*15:01; [9]) was 2.58 µM, the Kd (HLA-B*27:05; [9]) was ≥ 20 µM and the Kd (HLA-B*35:01; [9]) was 0.0728 µM. For the same sequence, the Kd (HLA-B*40:01; [9]) was ≥ 20 µM, the Kd (HLA-B*44:02; [9]) was ≥ 20 µM and the Kd (HLA-B*58:01 [1]; [9]) was 0.624 µM.
